A short description of this series: soluble on expression in E. coli; label from the status in PepcDB or PDB records.
As to “MTSIAISSGSFDPITLGHLDIIKRGAKVFDEVYVVVLNNSSKKPFFSVEERLDLIREATKDIPNVKVDSHSGLLVEYAKMRNANAILRGLRAVSDFEYEMQITSMNRKLDENIETFFIMTNNQYSFLSSSIVKEVARYGGSVVDLVPPVVERALKEKFQTPLK”, the “soluble on expression in E. coli” value is “not soluble”.

In the case of “MGSDKIHHHHHHMNTNKRVLILTANYGNGHVQVAKTLYEQCVRLGFQHVTVSNLYQESNPIVSEVTQYLYLKSFSIGKQFYRLFYYGVDKIYNKRKFNIYFKMGNKRLGELVDEHQPDIIINTFPMIVVPEYRRRTGRVIPTFNVMTDFCLHKIWVHENVDKYYVATDYVKEKLLEIGTHPSNVKITGIPIRPQFEESMPVGPIYKKYNLSPNKKVLLIMAGAHGVLKNVKELCENLVKDDQVQVVVVCGKNTALKESLSALEAENGDKLKVLGYVERIDELFRITDCMITKPGGITLTEATAIGVPVILYKPVPGQEKENANFFEDRGAAIVVNRHEEILESVTSLLADEDTLHRMKKNIKDLHLANSSEVILEDILKESEMMTAKQKAKVLS”, the “soluble on expression in E. coli” value is on record as “not soluble”.

Consider “MNPVAFIREKREGKKHRREDLEAFLLGYLRDEVPDYQVSAWLMAAFLRGLDPEETLWLTETMARSGKVLDLSGLPHPVDKHSSGGVGDKVSLVVGPILAASGCTFAKMSGRGLAHTGGTIDKLESVPGWRGEMTEAEFLERARRVGLVIAAQSPDLAPLDGKLYALRDVTATVESVPLIASSIMSKKLAAGARSIVLDVKVGRGAFMKTLEEARLLAKTMVAIGQGAGRRVRALLTSMEAPLGRAVGNAIEVREAIEALKGEGPGDLLEVALALAEEALRLEGLDPALARKALEGGAALEKFRAFLEAQGGDPRAVEDFSLLPLAEEHPLRAEREGVVREVDAYKVGLAVLALGGGRKRKGEPIDHGVGVYLLKKPGDRVERGEALALVYHRRRGLEEALGHLREAYALGEEAHPAPLVLEAI”, for which the “soluble on expression in E. coli” value is on record as “soluble”.

Turning to “TREFNDLCRPHMEALAILCGETVNLVIRVGTQARFLSSAESTGMLRVGDRQGQVLDAELTAGGRILLAELPRETLEQLYLRPVDLADDDREWGDRRLPADEFERFWRELSAARAVGFAVNVQQTEEGVAAFGVAIRNRARTAVGALTVAVPITRFRQHSQGPLVSQIKNAIRELEVDIADLEP”, the “soluble on expression in E. coli” value was “not soluble”.

“MKALLSIEMDMQVPFHDVDSMGITWHGNYLRYFEVARCKLLDELGYNYRQMRASNYAWPIIDVQIKYVKPSTFEQHITVRAELVEWENRLKINYQIRDTATGERITKGYTIQAAVDMTSLEHHHHHH”: the “soluble on expression in E. coli” value was “not soluble”.

On to “MTDYLADVQKYDSSADEAVVNKIVRHLGIALRNKDSALVSASDPKELERVREKWCEKKLGVGGSDADAAIAATAKAMADDRSKSRVTFYYLVAKNLGKLQTL”, for which the “soluble on expression in E. coli” value was “not soluble”.

For “MNKTYMLDTCICSFIMREQPEAVLKRLEQAVLRGQRIVVSAITYSEMRFGATGPKASPRHVELVDAFCARLDAILPWDRAAVDATTEIKVALRMAGTPIGPNDTAIAGHAIAAGAVLVTNNTREFERVPGLVLEDWVR”, the “soluble on expression in E. coli” value is listed as “not soluble”.

On to “SLEIERINEHTVKFYMSYGDIEDRGFDREEIWYNRERSEELFWEVMDEVHEEEEFAVEGPLWIQVQALDKGLEIIVTKAQLSKDGQKLELPIPEDKKQEPASEDLDALLDDFQKEEQAVNQEEKEQKLQFVLRFGDFEDVISLSKLNVNGSKTTLYSFENRYYLYVDFCNMTDEEVENQLSILLEYATESSISIHRLEEYGKLIISEHALETIKKHFAS”, for which the “soluble on expression in E. coli” value is recorded as “soluble”.

With “MFFLQMSGFPGSGKSTVSKYIAKLTGAVIIDHDVLKSALLKSLKVKGIESTIVGGLAYDAEWVLIDSYLEQGHSVILDSPCLYEGMVEKGIELSNKHGVKYKYIECYLNDMEEINRRLQTRKRMISQIEKVESEVGFKKWLNGSKRPSNNEYLIVDSSKPIEQYVEKMMDYMTK”, the “soluble on expression in E. coli” value is reported as “not soluble”.

With “MTDVYIAAGLRTPIGLVGKQFAKEQPEILGAKLINALQNKYPVPIDQVICGNTVGTGGNIGRLMTLYSHLGESVSALTVDMQCASAGAALSVGYAKIKAGMASNLLVGGIESSSLQPESVYASADWRQGAYKVAQFSPDSISPFAMIEGAERVAREHGFTKEYLNHWTLRSHQKASYCQEQALLADLILDLSGASDQGIRPRLSSKVLSKVPPILGEGHVISAANACLTHDAAAFLQLSSQPSAFKLIDVVEVAGDPQRSPLMVIKASQVLLEKHGLGMADMTAIEWNEAFAVIDGLFETHYPDLLDRYNIFGGALAYGHPYGASAAIIILHLMRALEIKNGRYGIAAIAAAGGQGFAVLLKYHKEFSHADKARILGKAMPK”, the “soluble on expression in E. coli” value is listed as “not soluble”.

For “LYLKRATHRIADGIGVVKASKLMGGSIRERVTGIDVMDNFLEYANQHKERIFLYGAKQEVVEAAAKNIQRQYPGIVISGILHGYTKKKQQEIVEQINKAEPRFVFVALGSPKQEIFLEQTIDHLTANVFLDVGGTFDVLAGSVKRAPEFYINHNLEWLYRCLTMKRYDRLMQIPKYIYLTIKYRNNKSRGQ”, the “soluble on expression in E. coli” value is on record as “not soluble”.

Turning to “MDASKSLPIRKHTTLLNRLPETRFATQLDKAKANWIVFAEYLSPRHFEDIDFFTGFYNPVLETWKVGQYEVALMAGELTSQHETILKSLNIDYASLNEVPDLSAPG”, the “soluble on expression in E. coli” value is “not soluble”.

On to “GPGSMKNISNKRIIKDLKLLLEEVDANNEANSSGSPHSAAIFSVHTDTIYNWILKVKAPADSVYGGAGNTYQLSVLFSEDYPHEPPTVRFVTPVYSPLVTEEGGICDRMVNDVWTPDQRASDVIKLVLDRVFSQYKNHSDDDVNPEARHYLEKFPQEFAARVRRGG”, for which the “soluble on expression in E. coli” value was “soluble”.

With “MGSDKIHHHHHHMADQKETIKPFKKIAIFDIFSGENSEIICSDKSKIAAQVNKWVNRAISNGADSCYVRLYEANKENIDTIIENLSYKILQIILPFSLNYKSSLVSAFHFREKDQIKMPEAKSNNVLFGKSCHSLKSIEEAEYEGLDYVFFSPIFATPTHPEAKGIGLDMLTQACKSTQMKVFALGGINENNYQKCLDAGASGIAAISMFKK”, the “soluble on expression in E. coli” value is “not soluble”.

Regarding “MSLNTGHASLAQWGMSCLQWQPEWSVLDIGCGGGANLLQILQRCPQGKAYGIDISPESVTFARKKNKKYLGTRCFIEQGGVHRLPYPDYAFDAVTAFETVYFWGNLQHAFTEVARVLKPGGSFLICCEISDPANKAWTGLVEGMEIHSCDELKAILSKSGFTDTAIFRTKKEELCLVSHRQTVRLEGHHHHHH”, the “soluble on expression in E. coli” value was “soluble”.

On to “GSHMGQNDLVKTLRMNYLFDFYQSLLTNKQRNYLELFYLEDYSLSEIADTFNVSRQAVYDNIRRTGDLVEDYEKKLELYQKFEQRREIYDEMKQHLSNPEQIQRYIQQLEDLE”, for which the “soluble on expression in E. coli” value is “soluble”.

Regarding “MPRPGKDSYDEQKPPYSYIWLTYMAIQDSDDKMLPLTEIYKYIMDRFPFYRKNTQRWQNSLRHNLSFNDCFIKIPRRADRPGKGSYWAVHPNASGMFENGSCLRRRKRFRARGGQDDDDDDFHHPAPSKISRKNPLPLLPEPPITPPLLSSLFPNLPPSLPNFCLFPPGMDPTKSLLLNPLSLLLMPHFLKNSSNFESSTPHSETSEISGSGSSSSKTPTPEAGFNSSFSIESILSS”, the “soluble on expression in E. coli” value is “not soluble”.

With “MGSDKIHHHHHHMGVTGNNYTKIFHRMYWDGTPTPTQLAQELSKHGLAITGISLWQLYNGTLQFPIYVATERQLKSTQWVTFHRRKQLRCCPAGVFSVEYPVLAITNLSDAQAIETLEGAYAKAQGAKFAAEHARQYVPQRNRELLRRAVVGVDSPPEKLLITALREQGIDCHANVLVGDYRWDIQLDRHRVLIEVDGFEFHRFKPENQDAFVRDRWKTNDATLRGYLCLHYAARSVYRHTAVIVDQVQAAIRVAPARGYPFDASAMWHRGCWKWS”, the “soluble on expression in E. coli” value is “not soluble”.

Take “ARKRFAGLEPVEMRMEVKAGDHGNTIINDVYSNDVYSLTLALDFQRRRTAETCLKKVLILSDILQSGMPPEELYRHVAGQLQVYALDFFVGIGEEIASHRTCFAGMSAVFFKDVATFLTSGEIERFSNSCILLKGARKYRFEQITERLVQQVH”: the “soluble on expression in E. coli” value is recorded as “not soluble”.

On to “MTKNTRFSPEVRQRAVRMVLESQGEYDSQWATICSIAPKIGCTPETLRVWGLRQHERDTGGGDGGLTTAERQRLKEPERENRELRRSNDILRQASAYFAKAEFDRLWKKLEHHHHHH”, for which the “soluble on expression in E. coli” value is given as “not soluble”.

Take “MFKIVYPNAKDFFSFINSITNVTDSIILNFTEDGIFSRHLTEDKVLMAIMRIPKDVLSEYSIDSPTSVKLDVSSVKKILSKASSKKATIELTETDSGLKIIIRDEKSGAKSTIYIKAEKGQVEQLTEPKVNLAVNFTTDESVLNVIAADVTLVGEEMRISTEEDKIKIEAGEEGKRYVAFLMKDKPLKELSIDTSASSSYSAEMFKDAVKGLRGFSAPTMVSFGENLPMKIDVEAVSGGHMIFWIAPRLLEHHHHHH”: the “soluble on expression in E. coli” value is given as “soluble”.

Take “DSYPDSQIEIRTLVGPYENTLVFRDTGPGIDDSILHKIFDDFFSFQKSGGSGLGLGYCQRVMRSFGGRIECKSVTNEFTEFYLHFPVVPNAPKVETLRTPNFYNWNQKVKTK”: the “soluble on expression in E. coli” value was “not soluble”.

Regarding “MSLKIEPKIFDELKTALVSFGDKYFVGEELNRSKLADDLRNYDEALLSKLFEVDFIMQHFVKEVAGQKLFQIEQLEEAVLYNDYWDTSYTKYENRVGLASKGKFLQDSQDVVLDFPFKDCVLTASMTKENNEEGYDDAFLNEVIEKDEIDRLFDKKVFVNVKRFGDNQGAQHSTAVDNEIVSFDKEKDNLIIKGNNLLALHALKNEFAGKVRQIYIDPPYNTGKDSFNYNDKFNHSSWLVFMKNRLEIAWELLSDDGTIWISIDGYESHYLKVLADGIFGAENFLDEVVWQRAYAPINLKKTFSKSHDYILVYAKNNSGAKELNRLPRKAEMVASYKNPDNDPRGVYKADNFSVGPAVEKNIYEITTPSGRKVLPPDGYSWRFSKERFEELLADNRVYFGKDGNSAPSYKRFLSEVKDGVVAQTLWTYQEVGHNQDAKKEIKSLFDGQTAFGTPKPEKLIQRILTLGSDENDLVLDFFMGSATTQAVAMKMNRRFIGIEQMDYISTVSVPRLQKVIEGEQGGISKDVNWQGGGSFVYAELFPKNMGYLQDVIHAKDLEELKSVYERMLSGTDTDEPADISFRADLSKIDWLQGFDENKRLLVKLLDKNGLYYNYSEIDDKNVRDLISDEDYTFNKNFYEGGEGHHHHHH”, the “soluble on expression in E. coli” value is reported as “soluble”.

As to “MTEMSFLSSEVLVGDLMSPFDQSGLGAEESLGLLDDYLEVAKHFKPHGFSSDKAKAGSSEWLAVDGLVSPSNNSKEDAFSGTDWMLEKMDLKEFDLDALLGIDDLETMPDDLLTTLDDTCDLFAPLVQETNKQPPQTVNPIGHLPESLTKPDQVAPFTFLQPLPLSPGVLSSTPDHSFSLELGSEVDITEGDRKPDYTAYVAMIPQCIKEEDTPSDNDSGICMSPESYLGSPQHSPSTRGSPNRSLPSPGVLCGSARPKPYDPPGEKMVAAKVKGEKLDKKLKKMEQNKTAATRYRQKKRAEQEALTGECKELEKKNEALKERADSLAKEIQYLKDLIEEVRKARGKKRVP”, the “soluble on expression in E. coli” value is “soluble”.

The record behind these values is the DeepSol protein solubility set.
